From patent US20040018191A1 (SCHERING, published 2004)

Target: human IGFR1 on cells (HEK293 cells transfected with IGFR1 DNA; MCF-7 cells expressing endogenous IGFR1) (human, UniProt P08069 31-1367)
Experiment: cell-based or functional assay

Chain of human IGFR1 on cells (HEK293 cells transfected with IGFR1 DNA; MCF-7 cells expressing endogenous IGFR1) (P08069 31-1367 limits assumed): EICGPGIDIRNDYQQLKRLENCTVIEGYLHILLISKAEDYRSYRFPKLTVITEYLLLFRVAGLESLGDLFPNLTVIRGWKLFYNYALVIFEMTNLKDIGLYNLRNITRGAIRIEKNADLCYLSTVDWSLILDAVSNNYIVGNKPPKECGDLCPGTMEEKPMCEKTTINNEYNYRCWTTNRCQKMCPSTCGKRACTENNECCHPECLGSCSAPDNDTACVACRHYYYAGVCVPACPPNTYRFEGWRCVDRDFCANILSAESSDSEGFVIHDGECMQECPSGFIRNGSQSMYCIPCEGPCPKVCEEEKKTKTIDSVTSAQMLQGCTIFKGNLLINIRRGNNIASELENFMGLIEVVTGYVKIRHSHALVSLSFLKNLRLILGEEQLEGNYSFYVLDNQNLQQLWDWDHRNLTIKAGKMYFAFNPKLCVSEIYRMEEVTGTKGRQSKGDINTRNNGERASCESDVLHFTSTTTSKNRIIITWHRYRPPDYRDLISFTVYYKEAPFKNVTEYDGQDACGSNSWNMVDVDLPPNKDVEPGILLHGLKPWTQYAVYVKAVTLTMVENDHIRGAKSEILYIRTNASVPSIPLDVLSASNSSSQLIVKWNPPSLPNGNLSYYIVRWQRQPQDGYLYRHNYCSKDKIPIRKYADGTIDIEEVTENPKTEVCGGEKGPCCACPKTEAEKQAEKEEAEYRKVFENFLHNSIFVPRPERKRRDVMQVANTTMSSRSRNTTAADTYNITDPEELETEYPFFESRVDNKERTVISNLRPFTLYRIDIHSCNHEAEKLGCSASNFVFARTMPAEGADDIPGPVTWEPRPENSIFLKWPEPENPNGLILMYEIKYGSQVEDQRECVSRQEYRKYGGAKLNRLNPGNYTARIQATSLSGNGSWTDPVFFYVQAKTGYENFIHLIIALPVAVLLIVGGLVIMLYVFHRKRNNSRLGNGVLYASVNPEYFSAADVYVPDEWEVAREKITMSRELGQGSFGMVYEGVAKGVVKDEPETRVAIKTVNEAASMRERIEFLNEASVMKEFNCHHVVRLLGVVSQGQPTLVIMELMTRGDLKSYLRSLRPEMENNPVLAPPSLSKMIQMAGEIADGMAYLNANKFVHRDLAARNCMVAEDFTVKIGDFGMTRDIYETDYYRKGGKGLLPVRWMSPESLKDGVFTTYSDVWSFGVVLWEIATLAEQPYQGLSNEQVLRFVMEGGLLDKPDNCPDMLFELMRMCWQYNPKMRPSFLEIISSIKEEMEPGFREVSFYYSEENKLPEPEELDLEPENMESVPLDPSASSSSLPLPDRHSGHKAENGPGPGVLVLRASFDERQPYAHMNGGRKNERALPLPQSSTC

B1: 1H3 fully human monoclonal anti-IGFR1 antibody (antibody, V domains shown)
VH: EVQLVQSGGGLVLPGGSLRLSCAGSGFTFSNYAMHWIRQAPGKGLEWVSAIGAGGDTYYADSVKGRFTISRDNAKDSLYLQMNSLRAEDMAVYYCARGRHRNWYYYNKDYWGQGTLVTVSS
VL: EIVLTQSPATLSLSPGERATLSCRASQSVSSFLAWYQQKPGQAPRLLIYDASNRAPGIPARFSGSGSGTDFTLTISSLEPEDFAVYYCQQRSNWPRWTFGQGTKVEIKR
**Q.** Which “IGFR1 autophosphorylation (IGF-I stimulated cells, immunoprecipitation and Western blot), IC50” value (“IGFR1 autophosphorylation” below) does the source give for B1 here?
**A.** 100 pM

B2: 15H12 fully human monoclonal anti-IGFR1 antibody (antibody, IgG3, V domains shown)
VH: EVQLVQSGGGLVHPGGSLRLSCAASGFTFSSFAMHWVRQAPGKGLEWISVIDTRGATYYADSVKGRFTISRDNAKNSLYLQMNSLRAEDMAVYYCARLGNFYYGMDVWGQGTTVTVSS
VL: EIVLTQVPDFQSVTPKEKVTITCRASQSIGSSLHWYQQKPDQSPKLLIKYASQSLSGVPSRFSGSGSGTDFTLTINSLEAEDAAAYYCHQSSRLPHTFGGGTKVEIKR
**Q.** B2 was tested. Which “IGFR1 autophosphorylation” value did it give?
**A.** 100 pM

B3: 19D12 fully human monoclonal anti-IGFR1 antibody (antibody, V domains shown)
VH: B2 VH
VL: B2 VL
**Q.** For B3, which “IGFR1 autophosphorylation” value is on record?
**A.** 100 pM
